Substitutions are numbered along the chain they refer to. In names and notes the source's numbering stands. Blank lines part the entries; values can stand above or below the binder they belong to.
How the values were obtained:
[1] = target: T1, EphA2-Fc (UniProt P29317 25-534, limits assumed); test: SPR (BIAcore 3000), EphA2-Fc immobilized on CM5 chip, soluble IgG, 1:1 Langmuir fit
T1 construct: Amine-coupled to a CM5 chip; not shown: Fc part
Experimental: (§1) The interaction of soluble 12G3, 4C10, 12G3/Mut and 4C10/Mut with immobilized EphA2-Fc was monitored by surface plasmon resonance detection using a BIAcore 3000 instrument (Pharmacia Biosensor, Uppsala, Sweden). EphA2-Fc was coupled to the dextran matrix of a CM5 sensor chip (Pharmacia Biosensor) using an Amine Coupling Kit as described (Johnsson et al. supra) at a surface density of 162 RU. IgGs were diluted in 0.01 M HEPES pH 7.4 containing 0.15 M NaCl, 3 mM EDTA and 0.005% P20. All subsequent dilutions were made in the same buffer. All binding experiments were performed at 25° C. with IgG concentrations typically ranging from 100 nM to 0.2 nM at a flow rate of 75 μL/min; data were collected for approximately 20 min and one 1-min pulse of 1M NaCl, 50 mM NaOH was used to regenerate the surfaces. IgGs were also flowed over an uncoated cell and the sensorgrams from these blank runs subtracted from those obtained with EphA2-Fc-coupled chips. Data were fitted to a 1:1 Langmuir binding model. This algorithm calculates both the kₒₙ and the koff, from which the apparent equilibrium dissociation constant, KD, is deduced as the ratio of the two rate constants (koff/kₒₙ).

[2] = target: T1, EphA2-Fc; test: SPR (BIAcore 3000), EphA2-Fc immobilized on CM5 chip, soluble IgG, 1:1 Langmuir fit; below the limit of detection
Experimental: as §1

T1 sequence (P29317 25-534 limits assumed): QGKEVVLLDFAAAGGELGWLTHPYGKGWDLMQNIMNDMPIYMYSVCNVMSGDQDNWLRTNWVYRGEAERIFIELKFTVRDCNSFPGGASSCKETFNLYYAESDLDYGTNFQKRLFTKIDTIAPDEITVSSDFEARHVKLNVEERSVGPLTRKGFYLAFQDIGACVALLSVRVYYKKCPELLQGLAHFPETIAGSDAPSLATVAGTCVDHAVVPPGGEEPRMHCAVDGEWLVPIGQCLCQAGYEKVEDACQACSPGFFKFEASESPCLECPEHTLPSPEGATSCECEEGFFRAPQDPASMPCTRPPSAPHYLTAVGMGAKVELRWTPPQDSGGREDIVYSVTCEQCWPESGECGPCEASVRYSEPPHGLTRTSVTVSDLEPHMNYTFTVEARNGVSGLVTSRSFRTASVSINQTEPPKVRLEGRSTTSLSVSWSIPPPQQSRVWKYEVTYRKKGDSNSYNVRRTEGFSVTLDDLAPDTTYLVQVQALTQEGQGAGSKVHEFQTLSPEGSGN

- Kd [1]: 0.034 nM
- koff [1]: 8.49e-06 s⁻¹
- kon [1]: 246000 M⁻¹ s⁻¹
B2: 12G3 humanized anti-EphA2 monoclonal antibody (antibody, human IgG1, V domains shown)
VH: QMQLVQSGPEVKKPGTSVKVSCKASGFTFDDYSMNWVRQARGQRLEWIGFIRNKANDYTTEYSASVKGRVTITRDMSTSTAYMELSSLRSEDTAVYYCARYPRHHAMDSWGQGTSVTVSS
VL: DIQMTQSPSSLSASVGDRVTITCRASQSISNNLHWYQQKPGKAPKLLIKYAFQSISGVPSRFSGSGSGTDFTFTISSLQPEDFATYYCQQANSWPLTFGGGTKVEIK
notes: Expressed as soluble human IgG1 (human gamma 1, human kappa)

- Kd [1]: 0.093 nM
- koff [1]: 5.96e-06 s⁻¹
- kon [1]: 64100 M⁻¹ s⁻¹
B4: 4C10/M, heavy chain modified 4C10 (S60A/A61D, Kabat) (antibody, human IgG1, V domains shown)
VH: B2 VH with N35T, D57A, S63A, A64D
VL: B2 VL with A91S
notes: The light chain is unaltered; Human IgG1 / kappa; also called 4C10/Mut

Further lines, the binder ahead of its results:

B1: 12G3/M, heavy chain modified 12G3 (S60A/A61D, Kabat) (antibody, human IgG1, V domains shown)
VH: B2 VH with S63A, A64D
VL: B2 VL
notes: The light chain is unaltered; Human IgG1 / kappa; also called 12G3/Mut
- kon [1]: 187000 M⁻¹ s⁻¹
- Kd [2]: < 0.027 nM
- koff [2]: < 5e-06 s⁻¹

B3: 4C10 humanized anti-EphA2 monoclonal antibody (antibody, human IgG1, V domains shown)
VH: B2 VH with N35T, D57A
VL: B2 VL with A91S
notes: Expressed in HEK 293 cells as soluble human IgG1 (human gamma 1 heavy chain, human kappa light chain)
- Kd [1]: 0.095 nM
- koff [1]: 9.75e-06 s⁻¹
- kon [1]: 102000 M⁻¹ s⁻¹
